Drawing on article PMC6314544, this text covers Kd for two substances.

Usually Kd stands for the concentration at which binding is half-saturated. Low values mean tighter binding, high ones weaker binding.

Experiment [1] concerns the target hLC3-KCK-his6 (human) (UniProt Q9GZQ8). The experiment in a line: FRET or BRET; various concentrations of Alexa Fluor 546-labeled NT JMY added to 200 nM Alexa Fluor 647-labeled LC3; 100 mM KCl, 20 mM Hepes pH 7.4. A general note: In BRET a luciferase serves as donor, and the signal depends on an acceptor being close.
The target is the same in experiment [2]. Put plainly: AUC; sedimentation equilibrium of purified LC3 in solution; dimer to monomers.

In turn, “SNAP-JMY (1-314), N-terminal region of JMY (from UniProt Q8N9B5 1-314) (domain or fragment)” gave a Kd with hLC3-KCK-his6 (human) [1] of 55 nM. “hLC3-KCK-his6 (from UniProt Q9GZQ8 1-120) (natural protein)” gave a Kd with hLC3-KCK-his6 (human) [2] of over 700 µM.
